# ± gives the standard deviation of the averaged measurements.
# System: ATP
# Experiment: switch fluorescence ratio, 500 uM ATP over buffer (Cy3 cluster intensity, sum of 5 cycles each) (fold (ratio)); higher = stronger signal-on switching upon ATP binding; sequences stand for … in TCGTCGGCAGCGTCAGATGTGTATAAGAGACAGTTTTTTTTTTTTTTTTTTTTTTTTT…TC
# Settings: aptamer strand: ATP DNA aptamer (quencher-CACCTGGGGGAGTATTGCGGAGGAAGG + anchor), 100 nM annealed; ATP concentration: 500 uM
# Method in brief: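 Per cluster, summed Cy3 intensity from the target cycles was divided by that from the buffer cycles to give the fluorescence ratio, then averaged per switch-domain sequence. Clusters outside 100-1000 RFU were excluded. The Cy3-labelled switching-strand clusters, on a modified Illumina MiSeq flow-cell, were annealed to 100 nM quencher-labelled ATP aptamer and imaged in selection buffer, then after 15 min with 500 uM ATP at 22 °C, for five cycles with NaOH stripping and re-annealing between them.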
# 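Further: ATP exposure 15 min at 22 °C before imaging.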
row,Sequence,switch fluorescence ratio
1,TTGAGTACCG,0.959 ± 0.022
2,CTGGTGAGTT,0.9789 ± 0.0012
3,TTCTGCGTGC,1.85 ± 1.5
4,AGGCTAAAG,0.974 ± 0.01
5,TTTCGGAGCC,1.16 ± 0.24
6,AGGGTGAGGG,0.984 ± 0.042
7,GGGGGCATCT,1 ± 0.019
8,AGTGTAGGGG,1.02 ± 0.028
9,ATGGTGTGCG,1.01 ± 0.025
10,ATTCCAAGGT,0.997 ± 0.029
11,CAAGAGTATT,0.995 ± 0.022
12,TAGGTTGAAT,0.984 ± 0.019
13,CGAGTGGCGA,1.077 ± 0.0022
14,TTGGCGCCGT,0.998 ± 0.044
15,GTCTATATGG,0.997 ± 0.032
16,ATCACTAGGA,1.04 ± 0.037
17,TTTAATATTA,0.986 ± 0.015
18,GGTAAGTTTG,1.03 ± 0.028
19,GTGATACCGT,0.99 ± 0.0087
20,GCGTTGGAAA,0.997 ± 0.015
21,AGGTGTTTAA,1.03 ± 0.061
22,CAGGAGAGCG,0.9934 ± 0.0077
23,GAGGGGGGCC,1.01 ± 0.06

row,Sequence,switch fluorescence ratio
1,AGGAGGAGGC,0.789 ± 0.23
2,AGTAATTGCG,0.982 ± 0.034
3,GGCGTTCATG,0.9968 ± 0.0081
4,GAGAATGGGT,0.981 ± 0.022
5,ACGTAATGG,1.57 ± 0.059
6,GTTTAGAGCG,1.026 ± 0.01
7,CGTGCGTCGG,1.01 ± 0.017
8,TGGATGTGTG,0.962 ± 0.038
9,TGACGCCGAA,1.07 ± 0.019
10,TCATAGTTCA,1.03 ± 0.012
11,TGTAGTTTAG,1.01 ± 0.032
12,GAAGGAGCAG,0.944 ± 0.029
13,TGGGTTACTT,0.995 ± 0.053
14,TCGTGTTTGT,1.02 ± 0.011
15,CAACATGTTT,1.02 ± 0.03
16,TCAAGATGTG,0.99 ± 0.036
17,AACCGATGTG,1.01 ± 0.037
18,ACTGGGCATG,1.01 ± 0.032
19,CTAGTTCGTC,0.972 ± 0.12
20,TTGTTTGGGG,0.998 ± 0.026
21,TTATGCCACG,1.04 ± 0.016
22,TGAAGATTTA,1.03 ± 0.017
23,TAGGAGGTAC,1.01 ± 0.054

row,Sequence,switch fluorescence ratio
1,GCAGTATGCT,1.01 ± 0.062
2,TAGGGCATCA,0.987 ± 0.042
3,ATGTTTCTAT,0.982 ± 0.027
4,AGTGGGAGGG,1 ± 0.02
5,ATTTTTTGGA,1.01 ± 0.026
6,TACAAGGGAT,0.983 ± 0.013
7,GAATTAGAGA,1.03 ± 0.033
8,AAAGGTTGAT,1.01 ± 0.011
9,ATAACAAGAC,1.32 ± 0.067
10,ATCATAAGGT,1.02 ± 0.02
11,ACCAACTCAA,1.18 ± 0.037
12,TAAATGTTAC,1.0644 ± 0.0005
13,GATCTACTTG,0.995 ± 0.017
14,TGTAACCCAT,1.02 ± 0.061
15,TCAGAAGGCG,0.981 ± 0.015
16,ACTAAATAAA,1.14 ± 0.23
17,TACGTGGGGC,1.01 ± 0.0079
18,TAGGTGCTTC,1.029 ± 0.0099
19,GGGATAGGGA,1.01 ± 0.045
20,TGGAAGCGGG,1.04 ± 0.07
21,ACACGGTGGG,0.975 ± 0.054
22,TCGGGGGGGT,1.06 ± 0.19
23,TGGATTTAGT,0.9825 ± 0.0084

row,Sequence,switch fluorescence ratio
1,GTGTAAATAG,1.01 ± 0.025
2,TTATTGGGGA,0.974 ± 0.024
3,TGTCGTTATT,0.9546 ± 0.0018
4,CGGATGTTGC,1.03 ± 0.05
5,CAGAGGGGTG,1.05 ± 0.012
6,GCCCGTCCTG,1.04 ± 0.015
7,GATATATAGA,0.998 ± 0.032
8,GTCTGTGGGT,0.972 ± 0.06
9,CCTCGATGTA,1.08 ± 0.027
10,GATGAGTTAG,0.973 ± 0.017
11,TTTAGAGGAA,0.977 ± 0.032
12,CTCCAGTCAG,1.51 ± 0.055
13,TTCAGCTGGG,0.998 ± 0.022
14,CTTGGTGTTG,1.04 ± 0.065
15,GGGTTATCAG,0.981 ± 0.035
16,GAGGAATGAG,0.9878 ± 0.005
17,TCGAAGCCGG,0.9774 ± 0.0061
18,GACCAGCCCC,1.31 ± 0.098
19,ACTTAAAGTC,0.973 ± 0.029
20,ATCAGATTGG,0.989 ± 0.0099
21,GTCCGGCTCG,0.9897 ± 0.0011
22,GCTGCCAACC,1.11 ± 0.031
23,GGTATTCATG,1.01 ± 0.011

row,Sequence,switch fluorescence ratio
1,ATTTGGGTGG,0.987 ± 0.041
2,AATTCGTCG,0.9557 ± 0.0045
3,GGTATTTGTA,0.991 ± 0.031
4,CATGCAGCAT,1.11 ± 0.02
5,AGGGTTACGG,1.02 ± 0.025
6,GGTCAGGGGC,1.08 ± 0.017
7,TGTTTTATCA,0.9742 ± 0.0037
8,CCCCAAGCAG,2.497 ± 0.0041
9,TCCTTTATTG,1.01 ± 0.021
10,GGGTATACAG,1.01 ± 0.053
11,AGTCCTAGGT,1.03 ± 0.022
12,CGAAACAGCA,1.012 ± 0.0064
13,TTGGTAAAAT,0.978 ± 0.041
14,TTTGCCTTGG,1.02 ± 0.018
15,TTGGGGCGTG,0.971 ± 0.057
16,TTTATCACAG,1.014 ± 0.0041
17,TCGGGGCTGG,1.02 ± 0.029
18,CACGGCAGCT,1.09 ± 0.02
19,AACTGACGGA,1.14 ± 0.026
20,AATGGTATGT,1.032 ± 0.0088
21,GTCGAGGGGA,1.01 ± 0.035
22,GGGGATTTGT,0.994 ± 0.034
23,CCATTTGTTG,0.971 ± 0.02

row,Sequence,switch fluorescence ratio
1,GAGGGCCATT,0.978 ± 0.017
2,AATAAGGGTG,1.09 ± 0.14
3,AAACTGAATC,1 ± 0.094
4,AGGGATGGTT,0.982 ± 0.013
5,CACTGGAGAG,1.039 ± 0.0048
6,CTGTTCTGGC,0.962 ± 0.12
7,CATGGGAGAG,1.05 ± 0.026
8,CGTTTAACAC,0.997 ± 0.02
9,GAAGTAGGCG,1.03 ± 0.028
10,GAATGAGATC,1.01 ± 0.11
11,GCTCCGATAG,5.2 ± 0.94
12,AGCTAGTCGC,1.01 ± 0.027
13,GTTTTGTCAT,1.01 ± 0.035
14,TTAAAATCGC,0.957 ± 0.022
15,GAAGGGGTTA,1.03 ± 0.087
16,GAGGGCCGGT,1.03 ± 0.032
17,TAGTAGTGAG,0.985 ± 0.013
18,CTCGATAGGT,0.984 ± 0.028
19,AGAAATAATC,1.01 ± 0.015
20,GGTGGGTGTT,0.951 ± 0.017
21,TTACTAAGCT,1.03 ± 0.069
22,TTTTTCGACG,1.1 ± 0.21
23,GTGGAGGGTT,1.03 ± 0.04

row,Sequence,switch fluorescence ratio
1,GGTAGTATGG,1 ± 0.03
2,TTGGGGGTAT,1.05 ± 0.068
3,CAGGAGGATC,1.027 ± 0.0074
4,TTTGAGAGGT,1.05 ± 0.03
5,CGACGGTGAA,1.09 ± 0.022
6,CGGCGAATCC,1.033 ± 0.0088
7,TGATTTCAGG,0.982 ± 0.062
8,GAGTGCCTGG,1.02 ± 0.012
9,GAGTTATGTA,0.997 ± 0.016
10,TACCTAATTA,1.04 ± 0.046
11,AGGTCGATCC,0.993 ± 0.05
12,CGATTAGGGG,1 ± 0.012
13,ACTTTTTAGG,1.01 ± 0.044
14,CTTGCGCCTG,1.01 ± 0.048
15,AAGGGTCGAT,0.968 ± 0.016
16,GATGTGGTGC,1.016 ± 0.0038
17,TGATAGTCTA,1 ± 0.068
18,CAAATTTGTC,0.994 ± 0.02
19,TTATTTCAAG,1.01 ± 0.064
